This experiment addresses recombinant human FceRIa D2/D1 subunit (human) (UniProt P12319). Kind of experiment: ELISA, IgE captured by His-tagged receptor on Ni-treated plate.
Sequence of UniProt P12319 (P12319 26-205): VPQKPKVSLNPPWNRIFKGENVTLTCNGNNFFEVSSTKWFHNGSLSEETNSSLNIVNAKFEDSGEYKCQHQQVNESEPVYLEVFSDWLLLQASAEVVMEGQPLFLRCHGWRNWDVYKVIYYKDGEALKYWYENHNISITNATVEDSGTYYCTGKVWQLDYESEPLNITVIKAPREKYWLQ

For the substance human myeloma IgE (BED) (antibody), the OD signal at 50 ng/ml came out at 1.2 OD.

The values above are taken from US9187553.
